This experiment deals with HLA-A2 (Homo sapiens, UniProt P04439, D140Y/D185E/D98H/E176V/E277Q/G131W/G231S/I119V/I121R/I166T/I218V/L300P/L318F/N151K/N90K/P208A/P217A/Q86G/Q94H/R138H/R169H/T345S). The experiment can be described thus: HLA-A2 peptide binding assay on T2 cells (fluorescence index, flow cytometry). The settings on record: summary of Tables 2 and 3. A general note: In flow cytometry, cells or beads pass a laser one at a time.

Regarding “GLAPLEVRV (Filamin-B peptides) [Filamin B peptide # 3, 9-mer peptide selected from the filamin-B polypeptide]”, the “upregulation of HLA-A2 expression (in words)” value (from here on “upregulation”) is listed as “greatest upregulation”. The result for “GLVEPVNMV (Filamin-B peptides) [Filamin B peptide # 2, 9-mer peptide selected from the filamin-B polypeptide]” reads “moderate upregulation”.

Consider “GQGDVMVFV (Filamin-B peptides) [Filamin B peptide # 6, 9-mer peptide selected from the filamin-B polypeptide]”, for which the “upregulation” value is recorded as “moderate upregulation”.

As to “KLILGLVWT (Filamin-B peptides) [Filamin B peptide # 7, 9-mer peptide selected from the filamin-B polypeptide]”, the “upregulation” value was “upregulated HLA-A2 weakly”. For “LILGLVWTL (Filamin-B peptides) [Filamin B peptide # 1, 9-mer peptide selected from the filamin-B polypeptide]”, the “upregulation” value was “greatest upregulation”. The result for “RLIALLEVL (Filamin-B peptides) [Filamin B peptide # 5, 9-mer peptide selected from the filamin-B polypeptide]” reads “greatest upregulation”; that for “SLQESGLKV (Filamin-B peptides) [Filamin B peptide # 4, 9-mer peptide selected from the filamin-B polypeptide]”, “moderate upregulation”.

Source of the values: patent publication US7901902B2, “Methods and compositions for identifying a cellular immune response against prostate cancer” (BioSante Pharmaceuticals, Inc., priority 2006, dated 2011).
